The results in this text go back to US20210087238A1, “CELL PENETRATING PEPTIDES AND RELATED COMPOSITIONS AND METHODS” (Phylogica Limited, priority 2017, published 2021).

The test system of one assay is AMO-1 (plasmacytoma). Briefly: Omomyc cell viability assay, ATP activity. It is filed as cell-based. Particulars: AMO-1 cells only. The procedure:
(§1) Treatment of (A) AMO-1 (plasmacytoma), (B) HL-60 (promyelocytic leukemia), and (C) T47D (breast cancer) cell lines with FPP-1.1_Omomyc protein. After 48 h incubation, cell viability was assessed by measuring ATP activity. […] Results are representative of two independent experiments. Error bars represent standard deviation from the mean of duplicate samples.
(§2) All assays followed manufacturer's instructions.

Assay [1] deals with AMO-1, HL-60, and T47D cell lines. Briefly: Omomyc cell viability assay, statements made for all three cell lines together. It is filed as cell-based. The note with it: 48 h; ATP activity; AMO-1, HL-60, T47D. As to the method: as §1
Treatment of AMO-1 (plasmacytoma), HL-60 (promyelocytic leukemia), and T47D (breast cancer) cell lines with FPP1.1_Omomyc or small molecule inhibitors. After a 48 h incubation, the cell viability was assessed by measuring ATP activity. […] Results are from one independent experiment. Error bars represent standard deviation from the mean of duplicate samples.
as §2

Entries after “also recorded” stand apart in the source; their conditions may differ.

B1: Omomyc: Myc dominant negative peptide (protein)
chain: GPGGSGTGATSDTEENVKRRTHNVLERQRRNELKRSFFALRDQIPELENNEKAPKVVILKKATAYILSVQAETQKLISEIDLLRKQNEQLKHKLEQLRNSCA
modifications: Amino acid sequence of Omomyc
notes: Myc dominant negative peptide
In the case of B1, the “doses at which a slight reduction in cell viability was seen” value in the assay on AMO-1 (plasmacytoma) is given as “above 10 μM”. Also, the “effect on cell viability” value in assay [1] is “no effect on cell viability; also recorded: poor potency; also recorded: minor effect on cell viability only at the highest concentrations”.
